Results reported in the supplement of paper PMC11246515.
± gives the standard deviation of the averaged measurements.

Test: total protein half-life in vivo (active degradation + dilution); higher = more stable protein
[1] = E. coli NCM3722 delta-clpP, growth: N-lim chemostat, doubling time 6 h
[2] = E. coli NCM3722 delta-hslV, growth: N-lim chemostat, doubling time 6 h
[3] = E. coli NCM3722 delta-lon, growth: N-lim chemostat, doubling time 6 h
[4] = E. coli NCM3722 delta-smpB, growth: N-lim chemostat, doubling time 6 h
[5] = wild type E. coli NCM3722, growth: C-lim chemostat, doubling time 3 h
[6] = wild type E. coli NCM3722, growth: C-lim chemostat, doubling time 6 h
[7] = wild type E. coli NCM3722, growth: C-lim chemostat, doubling time 12 h
[8] = wild type E. coli NCM3722, growth: N-lim chemostat, doubling time 6 h
[9] = wild type E. coli NCM3722, growth: N-lim chemostat, doubling time 12 h
[10] = wild type E. coli NCM3722, growth: P-lim chemostat, doubling time 6 h
[11] = wild type E. coli NCM3722, growth: P-lim chemostat, doubling time 12 h
[12] = E. coli NCM3722 delta-clpP delta-lon delta-hslV, growth: N-lim chemostat, doubling time 6 h

Row | Sequence | total protein half-life in vivo [1] [h] | total protein half-life in vivo [2] [h] | total protein half-life in vivo [3] [h] | total protein half-life in vivo [4] [h] | total protein half-life in vivo [5] [h] | total protein half-life in vivo [6] [h] | total protein half-life in vivo [7] [h] | total protein half-life in vivo [8] [h] | total protein half-life in vivo [9] [h] | total protein half-life in vivo [10] [h] | total protein half-life in vivo [11] [h] | total protein half-life in vivo [12] [h]
1 | MALYTIGEVALLCDINPVTLRAWQRRYGLLKPQRTDGGHRLFNDADIDRIREIKRWIDNGVQVSKVKMLLSNENVDVQNGWRDQQETLLTYLQSGNLHSLRTWIKERGQDYPAQTLTTHLFIPLRRRLQCQQPTLQALLAILDGVLINYIAICLASARKKQGKDALVVGWNIQDTTRLWLEGWIASQQGWRIDVLAHSLNQLRPELFEGRTLLVWCGENRTSAQQQQLTSWQEQGHDIFPLGI | 1.79 | 1.66 | 3.39 ± 0.71 | 1.34 ± 0.26 | 1.64 ± 0.79 | 3.86 ± 0.76 | 4.23 ± 0.31 | 2.04 | 2.49 | 1.98 | 3.04 ± 0.58 | –
2 | MAMVEMQTTAALAESRRKMQARRRLKNRIALTLSMATMAFGLFWLIWILMSTITRGIDGMSLALFTEMTPPPNTEGGGLANALAGSGLLILWATVFGTPLGIMAGIYLAEYGRKSWLAEVIRFINDILLSAPSIVVGLFVYTIVVAQMEHFSGWAGVIALALLQVPIVIRTTENMLKLVPYSLREAAYALGTPKWKMISAITLKASVSGIMTGILLAIARIAGETAPLLFTALSNQFWSTDMMQPIANLPVTIFKFAMSPFAEWQQLAWAGVLIITLCVLLLNILARVVFAKNKHG | 5.74 ± 0.15 | > 8 | 4.84 | 4.97 ± 0.05 | 3.37 | 5.11 ± 0.51 | 12.1 ± 1.3 | 5.15 ± 0.12 | 10.6 ± 2 | 4.95 ± 0.35 | 9.13 ± 0.56 | 6.78 ± 1.7
3 | MANADLDKQPDSVSSVLKVFGILQALGEEREIGITELSQRVMMSKSTVYRFLQTMKTLGYVAQEGESEKYSLTLKLFELGARALQNVDLIRSADIQMRELSRLTKETIHLGALDEDSIVYIHKIDSMYNLRMYSRIGRRNPLYSTAIGKVLLAWRDRDEVKQILEGVEYKRSTERTITSTEALLPVLDQVREQGYGEDNEEQEEGLRCIAVPVFDRFGVVIAGLSISFPTLRFSEERLQEYVAMLHTAARKISAQMGYHDYPF | 6.18 ± 1.6 | 4.82 ± 0.33 | 5.09 ± 0.25 | 5.01 ± 0.17 | 3.01 ± 0.13 | 5.91 ± 0.28 | 10.2 ± 0.83 | 5.255 ± 0.017 | 8.11 ± 0.13 | 5.82 ± 0.61 | 11.1 ± 0.7 | 6.07 ± 1.7
4 | MANELTWHDVLAEEKQQPYFLNTLQTVASERQSGVTIYPPQKDVFNAFRFTELGDVKVVILGQDPYHGPGQAHGLAFSVRPGIAIPPSLLNMYKELENTIPGFTRPNHGYLESWARQGVLLLNTVLTVRAGQAHSHASLGWETFTDKVISLINQHREGVVFLLWGSHAQKKGAIIDKQRHHVLKAPHPSPLSAHRGFFGCNHFVLANQWLEQRGETPIDWMPVLPAESE | 5.184 ± 0.029 | 5.26 ± 0.17 | 5.24 ± 0.29 | 5.6 ± 0.28 | 3.1 ± 0.099 | 5.17 ± 0.19 | 11.2 ± 2.4 | 4.89 ± 0.42 | 10.6 ± 0.65 | 5.97 ± 0.092 | – | –
5 | MANFFIRRPIFAWVLAIILMMAGALAILQLPVAQYPTIAPPAVSVSANYPGADAQTVQDTVTQVIEQNMNGIDNLMYMSSTSDSAGSVTITLTFQSGTDPDIAQVQVQNKLQLATPLLPQEVQQQGISVEKSSSSYLMVAGFVSDNPGTTQDDISDYVASNVKDTLSRLNGVGDVQLFGAQYAMRIWLDADLLNKYKLTPVDVINQLKVQNDQIAAGQLGGTPALPGQQLNASIIAQTRFKNPEEFGKVTLRVNSDGSVVRLKDVARVELGGENYNVIARINGKPAAGLGIKLATGANALDTAKAIKAKLAELQPFFPQGMKVLYPYDTTPFVQLSIHEVVKTLFEAIMLVFLVMYLFLQNMRATLIPTIAVPVVLLGTFAILAAFGYSINTLTMFGMVLAIGLLVDDAIVVVENVERVMMEDKLPPKEATEKSMSQIQGALVGIAMVLSAVFIPMAFFGGSTGAIYRQFSITIVSAMALSVLVALILTPALCATLLKPVSAEHHENKGGFFGWFNTTFDHSVNHYTNSVGKILGSTGRYLLIYALIVAGMVVLFLRLPSSFLPEEDQGVFLTMIQLPAGATQERTQKVLDQVTDYYLKNEKANVESVFTVNGFSFSGQAQNAGMAFVSLKPWEERNGDENSAEAVIHRAKMELGKIRDGFVIPFNMPAIVELGTATGFDFELIDQAGLGHDALTQARNQLLGMAAQHPASLVSVRPNGLEDTAQFKLEVDQEKAQALGVSLSDINQTISTALGGTYVNDFIDRGRVKKLYVQADAKFRMLPEDVDKLYVRSANGEMVPFSAFTTSHWVYGSPRLERYNGLPSMEIQGEAAPGTSSGDAMALMENLASKLPAGIGYDWTGMSYQERLSGNQAPALVAISFVVVFLCLAALYESWSIPVSVMLVVPLGIVGVLLAATLFNQKNDVYFMVGLLTTIGLSAKNAILIVEFAKDLMEKEGKGVVEATLMAVRMRLRPILMTSLAFILGVLPLAISNGAGSGAQNAVGIGVMGGMVSATLLAIFFVPVFFVVIRRCFKG | – | 5.63 | – | – | – | – | – | – | 8.2 | – | – | –
